To fix the notation:
T1: human GIP receptor (human) (UniProt P48546)
T1 sequence (looked up): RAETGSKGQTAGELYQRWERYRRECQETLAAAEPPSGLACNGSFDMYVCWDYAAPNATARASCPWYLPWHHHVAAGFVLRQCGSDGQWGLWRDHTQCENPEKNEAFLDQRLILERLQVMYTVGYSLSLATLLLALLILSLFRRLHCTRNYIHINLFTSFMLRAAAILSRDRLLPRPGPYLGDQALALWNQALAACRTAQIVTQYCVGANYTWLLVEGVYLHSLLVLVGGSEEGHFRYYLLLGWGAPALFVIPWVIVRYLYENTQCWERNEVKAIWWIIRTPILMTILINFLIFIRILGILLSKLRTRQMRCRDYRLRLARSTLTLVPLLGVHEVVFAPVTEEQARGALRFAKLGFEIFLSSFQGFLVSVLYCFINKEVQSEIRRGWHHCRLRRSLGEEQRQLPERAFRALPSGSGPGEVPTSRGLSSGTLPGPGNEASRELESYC

B1: Example 1109 (peptide)
chain: YXQGTFTSDXSQXLDXKAQXQFIEXLIEXGPSSGAPPPSGSEE
modifications: Aib, 4Pal, αMeL, Orn, Me4Pal, αMeY; acylated lysine; amide; synthetic construct; SITE 2: note = 2-Aminoisobutyric Acid; SITE 10: note = 3-(4-Pyridyl)-L-alanine; SITE 13: note = alpha-methyl-leucine; SITE 16: note = L-ornithine; SITE 17: note = Lysine is chemically modified through conjugation of the epsilon-amino group of the Lysine side chain with (2-[2-(2-
B2: Example 1132 (peptide)
chain: B1 chain with S11X, E24Q, E28A, S41G, E42G
modifications: not fully specified; Lys acylated γGlu-C18 diacid; non-natural residues; C-amide; synthetic construct; SITE 2: note = 2-Aminoisobutyric Acid; SITE 10: note = 3-(4-Pyridyl)-L-alanine; SITE 11: note = alpha-methyl-L-serine; SITE 13: note = alpha-methyl-leucine; SITE 16: note = L-ornithine; SITE 17: note = Lysine is chemically modified through conjugation of the epsilon-amino group
B3: Example 1112 (peptide)
chain: B1 chain with Q21A
modifications: non-natural residues; acylated Lys; C-terminal amide; synthetic construct; SITE 2: note = 2-Aminoisobutyric Acid; SITE 10: note = 3-(4-Pyridyl)-L-alanine; SITE 13: note = alpha-methyl-leucine; SITE 16: note = L-ornithine; SITE 17: note = Lysine is chemically modified through conjugation of the epsilon-amino group of the Lysine side chain with D-Glutami
B4: Example 1139 (peptide)
chain: B1 chain with S11X, E24Q, I27L, S41G, E42G
modifications: not fully specified; non-natural residues (Aib, 4Pal, αMeS, Iva, αMeY); lipidated K; amide; synthetic construct; SITE 2: note = 2-Aminoisobutyric Acid; SITE 10: note = 3-(4-Pyridyl)-L-alanine; SITE 11: note = alpha-methyl-L-serine; SITE 13: note = alpha-methyl-leucine; SITE 16: note = L-ornithine; SITE 17: note = Lysine is chemically modified through conjugation of the epsilon-amino group
B5: Example 1122 (peptide)
chain: B1 chain with X16K, Q21A
modifications: Aib, 4Pal, αMeL, Me4Pal; K (γGlu)2-C18 diacid; amide; synthetic construct; SITE 2: note = 2-Aminoisobutyric Acid; SITE 10: note = 3-(4-Pyridyl)-L-alanine; SITE 13: note = alpha-methyl-leucine; SITE 17: note = Lysine is chemically modified through conjugation of the epsilon-amino group of the Lysine side chain with (gamma-Glu)2-CO-(CH2)16-CO2H; SITE 20:
B6: Example 1127 (peptide)
chain: B1 chain with X16K, Q21A, X25Y, S41T, E42G
modifications: Aib, 4Pal, Me4Pal, alpha-methyl-Leu, lipidated Lys, C-terminal amide; synthetic construct; SITE 2: note = 2-Aminoisobutyric Acid; SITE 10: note = 3-(4-Pyridyl)-L-alanine; SITE 13: note = alpha-methyl-leucine; SITE 17: note = Lysine is chemically modified through conjugation of the epsilon-amino group of the Lysine side chain with (gamma-Glu)2-CO-(CH2)16-CO2H; SITE 20:
B7: Example 1138 (peptide)
chain: B1 chain with S11X, E24Q, I27L, S41G, E42G
modifications: not fully specified; non-natural residues, acylated Lys, C-terminal amide; synthetic construct; SITE 2: note = 2-Aminoisobutyric Acid; SITE 10: note = 3-(4-Pyridyl)-L-alanine; SITE 11: note = alpha-methyl-L-serine; SITE 13: note = alpha-methyl-leucine; SITE 16: note = L-ornithine; SITE 17: note = Lysine is chemically modified through conjugation of the epsilon-amino group
B8: Example 1114 (peptide)
chain: B1 chain with Q21A, E28A
modifications: not fully specified; Aib, 4Pal, αMeL, Orn, Me4Pal, αMeY; γGlu-C18 diacid Lys; C-term amide; synthetic construct; SITE 2: note = 2-Aminoisobutyric Acid; SITE 10: note = 3-(4-Pyridyl)-L-alanine; SITE 13: note = alpha-methyl-leucine; SITE 16: note = L-ornithine; SITE 17: note = Lysine is chemically modified through conjugation of the epsilon-amino group of the Lysine side chain with D-Glutami
B9: Example 1117 (peptide)
chain: B1 chain with X16K, Q21A, S41T, E42G
modifications: non-natural residues; Lys acylated AEEA-γGlu-C18 diacid; C-terminal amide; synthetic construct; SITE 2: note = 2-Aminoisobutyric Acid; SITE 10: note = 3-(4-Pyridyl)-L-alanine; SITE 13: note = alpha-methyl-leucine; SITE 17: note = Lysine is chemically modified through conjugation of the epsilon-amino group of the Lysine side chain with (2-[2-(2-Amino-ethoxy)-ethoxy]-acetyl)
B10: Example 1136 (peptide)
chain: B1 chain with S11X, Q12I, E24Q, S41G, E42G
modifications: not fully specified; non-natural residues (Aib, 4Pal, αMeS, Orn, Me4Pal); lipidated Lys; C-amide; synthetic construct; SITE 2: note = 2-Aminoisobutyric Acid; SITE 10: note = 3-(4-Pyridyl)-L-alanine; SITE 11: note = alpha-methyl-L-serine; SITE 13: note = alpha-methyl-leucine; SITE 16: note = L-ornithine; SITE 17: note = Lysine is chemically modified through conjugation of the epsilon-amino group
B11: Example 1134 (peptide)
chain: B1 chain with S11X, E24Q, S41G, E42G
modifications: not fully specified; N-methyl-Tyr, non-natural residues, acylated Lys (γGlu-C18 diacid), C-terminal amide; synthetic construct; SITE 1: note = N-methyl-tyrosine; SITE 2: note = 2-Aminoisobutyric Acid; SITE 10: note = 3-(4-Pyridyl)-L-alanine; SITE 11: note = alpha-methyl-L-serine; SITE 13: note = alpha-methyl-leucine; SITE 16: note = L-ornithine; SITE 17: note = Lysine is chemically modified …
B12: Example 1119 (peptide)
chain: B1 chain with X16K, Q21A, S41T, E42G
modifications: Aib, 4Pal, αMeL, Me4Pal; acylated Lys; C-terminal amide; synthetic construct; SITE 2: note = 2-Aminoisobutyric Acid; SITE 10: note = 3-(4-Pyridyl)-L-alanine; SITE 13: note = alpha-methyl-leucine; SITE 17: note = Lysine is chemically modified through conjugation of the epsilon-amino group of the Lysine side chain with (gamma-Glu)2-CO-(CH2)16-CO2H; SITE 20:
B13: Example 1113 (peptide)
chain: B1 chain
modifications: non-natural residues; lipidated Lys; C-terminal amide; synthetic construct; SITE 2: note = 2-Aminoisobutyric Acid; SITE 10: note = 3-(4-Pyridyl)-L-alanine; SITE 13: note = alpha-methyl-leucine; SITE 16: note = L-ornithine; SITE 17: note = Lysine is chemically modified through conjugation of the epsilon-amino group of the Lysine side chain with D-Glutami

Substitutions are numbered along the chain they refer to.

For one test, the target named is hGLP-1R (Homo sapiens, UniProt P43220). Kind of test: cell-based or functional assay.
hGLP-1R, sequence (P43220 24-463): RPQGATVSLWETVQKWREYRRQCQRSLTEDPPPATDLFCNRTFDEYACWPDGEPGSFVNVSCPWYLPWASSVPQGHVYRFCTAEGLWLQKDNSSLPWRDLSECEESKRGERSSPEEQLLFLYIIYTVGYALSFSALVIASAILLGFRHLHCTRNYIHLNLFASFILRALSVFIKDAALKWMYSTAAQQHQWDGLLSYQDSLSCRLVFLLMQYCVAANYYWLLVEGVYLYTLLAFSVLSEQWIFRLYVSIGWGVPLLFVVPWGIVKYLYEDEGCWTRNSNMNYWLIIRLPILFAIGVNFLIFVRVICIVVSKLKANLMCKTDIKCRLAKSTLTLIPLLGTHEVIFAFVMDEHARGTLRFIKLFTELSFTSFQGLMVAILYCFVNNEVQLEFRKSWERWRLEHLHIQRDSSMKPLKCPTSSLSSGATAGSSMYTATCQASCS
Turning to B1, the Relative cAMP EC50 amounted to 2.3 nM.

B2 had a Relative cAMP EC50 of 0.681 nM.

Take B3: the Relative cAMP EC50 is 0.957 nM.

B4 registered a Relative cAMP EC50 of 1.85 nM.

Consider B5, for which the Relative cAMP EC50 was 5.66 nM.

The molecule B6 gave a Relative cAMP EC50 of 6.16 nM.

Molecule B7 displayed a Relative cAMP EC50 of 1.93 nM.

With B8, the Relative cAMP EC50 is 0.84 nM.

Molecule B9 gave a Relative cAMP EC50 of 3.51 nM.

B10 had a Relative cAMP EC50 of 0.453 nM.

As for B11, the Relative cAMP EC50 was found to be 0.957 nM.

Turning to B12, the Relative cAMP EC50 stood at 3.57 nM.

In the case of B13, the Relative cAMP EC50 was 1.12 nM.

For a further test, the target named is T1, human GIP receptor (human). Kind of test: cell-based or functional assay.
B1 returned a Relative cAMP EC50 of 0.0626 nM.

B2 gave a Relative cAMP EC50 of 0.0335 nM.

The molecule B3 returned a Relative cAMP EC50 of 0.254 nM.

With B4, the Relative cAMP EC50 came out at 0.0431 nM.

The molecule B5 had a Relative cAMP EC50 of 0.109 nM.

For B6, the Relative cAMP EC50 came to 0.167 nM.

In the case of B7, the Relative cAMP EC50 amounted to 0.0491 nM.

For the molecule B8, the Relative cAMP EC50 came to 0.0478 nM.

Take B9: the Relative cAMP EC50 was found to be 0.124 nM.

For the molecule B10, the Relative cAMP EC50 was determined as 0.0131 nM.

As to B11, the Relative cAMP EC50 worked out at 0.0391 nM.

In turn, B12 returned a Relative cAMP EC50 of 0.0939 nM.

As for B13, the Relative cAMP EC50 was found to be 0.0414 nM.

The target in a further test is human glucagon receptor (human) (UniProt P47871). Kind of test: cell-based or functional assay.
human glucagon receptor (human), sequence (P47871 26-477): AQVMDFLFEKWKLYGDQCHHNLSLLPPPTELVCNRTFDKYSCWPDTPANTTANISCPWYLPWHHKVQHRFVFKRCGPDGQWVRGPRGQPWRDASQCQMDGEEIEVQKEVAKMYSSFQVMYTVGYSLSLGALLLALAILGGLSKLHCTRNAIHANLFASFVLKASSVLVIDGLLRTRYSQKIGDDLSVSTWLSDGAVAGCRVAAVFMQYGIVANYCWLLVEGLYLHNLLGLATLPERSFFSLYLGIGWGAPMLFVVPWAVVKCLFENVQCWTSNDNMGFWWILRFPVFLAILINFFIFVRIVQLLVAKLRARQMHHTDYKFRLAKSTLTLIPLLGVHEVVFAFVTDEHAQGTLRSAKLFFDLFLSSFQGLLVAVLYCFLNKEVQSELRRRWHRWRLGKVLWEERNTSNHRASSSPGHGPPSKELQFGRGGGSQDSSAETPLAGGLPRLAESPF
The molecule B1 returned a Relative cAMP EC50 of 10.8 nM.

Consider B2, for which the Relative cAMP EC50 is 2.11 nM.

The molecule B3 gave a Relative cAMP EC50 of 10.7 nM.

With B4, the Relative cAMP EC50 worked out at 5.29 nM.

Turning to B5, the Relative cAMP EC50 came to 10.3 nM.

B6 gave a Relative cAMP EC50 of 5.95 nM.

Take B7: the Relative cAMP EC50 is 1.01 nM.

For B8, the Relative cAMP EC50 is 11.5 nM.

In turn, B9 returned a Relative cAMP EC50 of 4.93 nM.

Regarding B10, the Relative cAMP EC50 was 1.26 nM.

For the molecule B11, the Relative cAMP EC50 is 2.57 nM.

For B12, the Relative cAMP EC50 is 7.61 nM.

Molecule B13 came in with a Relative cAMP EC50 of 14.4 nM.

The record behind these values is patent US20240270821A1, “GIP/GLP1/GCG TRI-RECEPTOR AGONISTS AND USES THEREOF” (priority 2023, published 2024).
